Biological target: human protein kinase R (PKR) (human) (UniProt P19525)
Assay: cell-based or functional assay

Sequence of UniProt P19525 (P19525 2-551 limits assumed): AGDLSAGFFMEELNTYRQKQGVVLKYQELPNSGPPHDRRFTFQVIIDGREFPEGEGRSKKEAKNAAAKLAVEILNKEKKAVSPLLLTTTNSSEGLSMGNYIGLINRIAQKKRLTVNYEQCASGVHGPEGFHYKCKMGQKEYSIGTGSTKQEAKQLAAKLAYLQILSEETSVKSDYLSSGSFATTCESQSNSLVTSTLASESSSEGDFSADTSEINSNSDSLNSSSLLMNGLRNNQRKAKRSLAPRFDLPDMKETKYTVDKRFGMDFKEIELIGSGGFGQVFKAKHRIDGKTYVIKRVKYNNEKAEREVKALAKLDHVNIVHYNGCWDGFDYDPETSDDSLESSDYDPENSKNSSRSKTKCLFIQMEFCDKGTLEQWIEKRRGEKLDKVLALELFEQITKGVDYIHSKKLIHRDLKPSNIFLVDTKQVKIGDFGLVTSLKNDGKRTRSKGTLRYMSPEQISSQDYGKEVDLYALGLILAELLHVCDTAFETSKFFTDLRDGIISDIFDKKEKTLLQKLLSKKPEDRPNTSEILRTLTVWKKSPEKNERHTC

Substance | virus titre increase between 5 hpi and 48 hpi in HeLa cells [fold]
sheeppox virus 011 (K3 ortholog) | > 10
taterapox virus 037 (K3 ortholog) | > 10
